“Also recorded” adds a separate entry of the source. Where a SMILES comes first, the peptide text is derived from it. [ ]: non-standard residue; d: D form. Nle = CCCC[C@H](N)C(=O)O
Assays:
[1] = tested on: SMA LC expressed in COS cells; experiment: aggresome formation in SMA-transfected COS cells, immunofluorescence; assay type: cell-based; conditions: for proportion of COS cells containing aggresomes: SMA-transfected, immunofluorescence, Hsp70 co-expressed, with or without ALLN; for cells exhibiting aggresomes: anti-kappa stained cells, peptides added with ALLN
Procedure: COS-1 cells were transiently transfected with FuGENE 6 transfection reagent (Roche Molecular Biochemicals, Indianapolis, Ind.) according to manufacturer's instructions and analyzed two days later. Overnight incubations with various concentrations of ALLN (SEQ. ID. NO. 11) (Sigma Chemical Co., St. Louis, Mo.), 10 μM lactacystin (Calbiochem, La Jolla, Calif.), 10 μg/ml nocodazole (Sigma), or various concentrations of peptides were begun the day following transfection.
A peptide was synthesized that fused an HIV TAT sequence (YGRKKRRQRRR) (SEQ. ID. NO. 8) with the VL derived sequence which the inventors have shown inhibit fiber formation in vitro, discussed supra. To ensure adequate flexibility and solubility, additional VL sequence was added on both sides of the active 7-mer, generating the following sequence for the TAT-TISS peptide: NH2-[…]-OH. (SEQ. ID. NO. 9) A control peptide was synthesized (TAT-PASS) in which the critical hydrophobic residues were substituted with alanines and the extended structure of the peptide destroyed by the addition of a proline (NH2-[…]-OH). (SEQ. ID. NO. 10) cells were treated with either peptide 24 h after transfection and incubated overnight in the presence of the indicated concentrations of ALLN. (SEQ. ID. NO. […]) Cells were then harvested for western blotting or immunofluorescence as described above.
Without ALLN (SEQ. ID. NO. 11) treatment 30% of the COS cells contained aggresomes as assayed by immunofluorescence.
Lastly, the inventors determined that the decrease in steady state level of SMA in the presence of TAT-TISS (SEQ. ID. NO. 9) peptide correlated with a decrease in the frequency of aggresome formation, by scoring anti-kappa stained cells.

transthyretin = transthyretin (Homo sapiens, UniProt P02766); conditions: Peterson et al. 1998; cited from earlier work
[2] = target: SMA, recombinant kappa-IV light chain variable domain (VL) (human); experiment: cell-based or functional assay
λ6 VL protein = experiment: in vitro fibril assembly of λ6 VL protein; assay type: biochemical
[3] = target: T1, SMA (kappa-IV recombinant VL) (Homo sapiens, UniProt P06312, K56R/P66L/Q115H/T120H); experiment: agitation-based in vitro SMA fibril formation assay (fluorescence); assay type: biochemical; conditions: for inhibition of SMA fibril formation: in vitro, result in words
T1 construct: two kappa-IV recombinant VL, LEN and SMA; made in house
Procedure: Further, the inventors used an agitation-based in vitro assay to assemble fibrils from two kappa-IV recombinant VL, LEN and SMA.
Fibril formation was measured over time at each peptide concentration. The extent of SMA fibril formation at 45 hours in the presence of various concentration so fthe peptides is plotted relative to that of SMA alone at 45 hours.
In the BiP reactions, SMA fibril formation was assayed in the range of 1 to 1000 moles SMA per mole of fibril antagonist.

[4] = tested on: SMA LC expressed in COS-1 cells; experiment: biochemical assay of soluble and insoluble SMA in transfected COS-1 cells (western blot); assay type: cell-based; conditions: for intracellular aggregation of SMA: in cells, result in words; for amount of SMA recovered: 50 μM peptide, overnight, 1-10 μg/ml ALLN
SMA = experiment: co-immunoprecipitation with SMA using anti-kappa antibody; assay type: binding, human; conditions: co-transfected, metabolically labeled cells, soluble fractions
Procedure: Culture, metabolic labeling, lysis and immunoprecipitation of COS-1 cells were performed as described in Dul et al. Immunol. […] The following antibodies were used in immunoprecipitations: rabbit anti-human kappa antibody (Bethyl Labs, Montgomery, Tex.); goat anti-human kappa (Caltag, Burlingame, Calif.); mouse anti-ubiquitin (StressGen, Victoria, BC, Canada).
Endogenous Hsp70 was also associated with SMA, but was not dramatically enriched.

BiP (binding protein), endoplasmic reticulum chaperone, recombinant wild type, sequence (P07823 19-654): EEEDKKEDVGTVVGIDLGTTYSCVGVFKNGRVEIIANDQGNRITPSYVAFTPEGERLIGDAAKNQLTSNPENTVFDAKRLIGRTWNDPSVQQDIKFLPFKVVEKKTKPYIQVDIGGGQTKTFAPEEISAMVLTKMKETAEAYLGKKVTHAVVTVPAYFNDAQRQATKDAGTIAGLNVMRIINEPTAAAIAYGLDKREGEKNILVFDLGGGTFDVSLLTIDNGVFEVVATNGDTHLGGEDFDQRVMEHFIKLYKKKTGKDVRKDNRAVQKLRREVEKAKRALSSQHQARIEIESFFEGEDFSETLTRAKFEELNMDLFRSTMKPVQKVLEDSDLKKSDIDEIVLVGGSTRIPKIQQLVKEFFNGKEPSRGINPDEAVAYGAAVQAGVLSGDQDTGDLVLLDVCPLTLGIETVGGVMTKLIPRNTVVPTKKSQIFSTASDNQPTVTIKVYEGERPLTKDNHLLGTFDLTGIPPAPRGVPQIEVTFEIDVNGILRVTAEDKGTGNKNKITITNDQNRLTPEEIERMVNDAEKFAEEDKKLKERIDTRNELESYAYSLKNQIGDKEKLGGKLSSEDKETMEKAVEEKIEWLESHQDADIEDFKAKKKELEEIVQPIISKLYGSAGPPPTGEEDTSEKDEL

Compound: CCCC[C@@H](C=O)NC(=O)[C@H](CC(C)C)NC(=O)[C@H](CC(C)C)NC(C)=O [ALLN, reference compound] (Ac-Leu-Leu-[Nle]-aldehyde)
- proportion of COS cells containing aggresomes [1]: 75%
- cells exhibiting aggresomes [1]: about 65%

Compound: O=C(O)c1ccccc1Nc1cccc(C(F)(F)F)c1 [flufenamic acid]
- inhibition of conformational changes of transthyretin (transthyretin): inhibits the conformational changes

Compound: BiP (binding protein), endoplasmic reticulum chaperone, recombinant wild type
- SMA fibril formation (fluorescence units) at 30 SMA:1 BiP [2]: < 10 percent
- SMA fibril formation (fluorescence) at 100:1 stoichiometric ratio [2]: 75 percent
- SMA fibril formation (fluorescence) at 300:1 stoichiometric ratio [2]: 100 percent
- inhibition of SMA ordered aggregation at 75 hours, 1 mole BiP per 100 moles SMA [2]: 50%

Compound: FTLKISR
- inhibition of fibril assembly of λ6 VL protein (λ6 VL protein): inhibited fibril assembly
- inhibition of SMA fibril formation [3]: inhibited as well as FTLTISS

Compound: FTLTISS [Phe71-Thr72-Leu73-Thr74-Ile75-Ser76-Ser77, peptide of positions 71 through 77 of human kappa-4 light chain variable domain]
- intracellular aggregation of SMA [4]: effective in reducing intracellular aggregation
- inhibition of SMA fibril formation [3]: fibril blocking; also recorded: markedly inhibited the aggregation

Compound: FYQLALT [reference compound]
- effect of prebinding BiP with peptide on BiP's suppression of fibril assembly ([3]; BiP incubated with peptide before aggregation reaction): blocked the chaperone's ability to suppress fibril assembly

Compound: H-YGRKKRRQRRRSGSGTDATAPASSLQAED-OH [TAT-PASS, reference compound]
- cells exhibiting aggresomes [1]: no significant effect
- effect on yield of SMA ([4]; 10 μg/ml ALLN, highest peptide concentration used): only a marginal effect
- amount of SMA recovered [4]: no effect
- inhibition of SMA fibril formation [3]: does not inhibit fibril formation in vitro

Compound: H-YGRKKRRQRRRSGSGTDFTLTISSLQAED-OH [TAT-TISS]
- cells exhibiting aggresomes [1]: 25%
- ubiquitinated forms of SMA [4]: diminished
- amount of SMA recovered [4]: dramatically reduced

Compound: Hsp70: heat shock protein 70, a family member of BiP; cytosolic chaperone
- proportion of COS cells containing aggresomes [1]: 12%
- frequency of aggresome formation ([1]; co-expression with SMA, result in words): decreases the frequency of aggresome formation
- ubiquitinated forms of SMA [4]: decrease in the pool of ubiquitinated SMA
- intracellular aggregation of SMA [4]: decreases its aggregation
- inhibition of SMA fibril formation [3]: blocked fibril formation
- inhibition of SMA fibril formation ([3]; listed as heat shock protein (hsp)70): did inhibit fibril formation
- association with SMA by co-immunoprecipitation (SMA): specifically co-immunoprecipitated with SMA

Compound: Lysozyme [reference compound]
- inhibition of SMA fibril formation [3]: no appreciable fibril blocking ability
- inhibition of SMA fibril formation ([3]; listed as lysozome): did not significantly decrease fibril formation

Compound: PKLLIYWA
- inhibition of SMA fibril formation [3]: partial inhibition

Compound: TDFTLTI
- inhibition of SMA fibril formation [3]: markedly inhibited the aggregation

Compound: TRIFSKL [reference compound]
- inhibition of SMA fibril formation [3]: ineffective fibril blocker

Compound: albumin [reference compound]
- inhibition of SMA fibril formation [3]: did not significantly decrease fibril formation

Compound: ferritin [reference compound]
- inhibition of SMA fibril formation [3]: did not significantly decrease fibril formation
